This note sets out measurements from article PMC9022995, “Sequence and structural variations determining the recruitment of WNK kinases to the KLHL3 E3 ligase” (Biochemical Journal, 2022).

Square brackets hold non-standard residues; d marks the D form. Ends that are not written are not given here. Peptide text beside a SMILES is read from it. Lumio green = fluorophore conjugated via N-terminal linker CCPGCCGGGG; Rhodamine‑110 = fluorophore on the N-terminus; pT = C[C@@H](OP(=O)(O)O)[C@H](N)C(=O)O A value given as a limit tells only on which side of the number the result lay.

Test [1] has as its system WNK3 protein levels in HEK293 cells co-transfected with KLHL3-FLAG. Kind of test: KLHL3-mediated degradation of WNK3 on co-transfection, immunoblotting for WNK3 protein levels. The note with it: WNK3-HA wild type or mutant with increasing KLHL3-FLAG, 48 h post transfection, immunoblot, three independent experiments, mean ± SEM. The test is classed as cell-based. The procedure:
Figure 3. T541E substitution in WNK3 affects its KLHL3-targeted degradation in HEK293 cells. (A) WNK3-HA protein levels were investigated in HEK293 cells transfected with either wild type or mutant constructs and increasing concentrations of KLHL3-FLAG. A representative blot is presented. (B) Quantitative results of three independent experiments. Data are mean ± SEM. * P < 0.01, ** P < 0.0005.
HEK293 cells (ATCC® CRL-1573) were grown in Dulbecco's modified Eagle's medium (DMEM) supplemented with 10% fetal bovine serum to 70–80% confluence and transfected using Lipofectamine 2000 (Life Technologies, Inc.) with wild type or mutant WNK3-HA [46] and with different concentrations of KLHL3-FLAG [42]. Forty-eight hours post transfection, cells were lysed and protein concentration was quantified by the BCA protein assay (Pierce). Samples were diluted in Laemmli buffer and subjected to SDS–PAGE. Proteins were transferred to PVDF membranes which were then blocked for 1 h in 10% (w/v) non-fat milk dissolved in TBS- Tween 20 0.1% (TBSt). Antibodies were diluted in 5% (w/v) non-fat milk-TBSt. Incubation with HRP-coupled primary antibodies was performed overnight. Immunoblots were developed using radiographic film.
Lysis buffer: 50 mM Tris–HCl (pH 7.5), 1 mM EGTA, 1 mM EDTA, 50 mM sodium fluoride, 5 mM sodium pyrophosphate, 1 mM sodium orthovanadate, 1% (w/v) IGEPAL CA-630, 270 mM sucrose, 0.1% (v/v) 2-mercaptoethanol, and protease inhibitors (Complete tablets (Roche Applied Science).
In general terms: In western blotting, separated proteins are transferred to a membrane and probed.

Test [2] concerns the target T1, KLHL3 Kelch domain (GST-KLHL3, a.a. 298–587) (Homo sapiens, UniProt Q9UH77).
T1 construct: using KLHL3 Kelch domain (GST-KLHL3, a.a. 298–587, MRC-PPU plasmid DU44387); host or cells: E. coli BL21
T1 sequence (Q9UH77 298-587): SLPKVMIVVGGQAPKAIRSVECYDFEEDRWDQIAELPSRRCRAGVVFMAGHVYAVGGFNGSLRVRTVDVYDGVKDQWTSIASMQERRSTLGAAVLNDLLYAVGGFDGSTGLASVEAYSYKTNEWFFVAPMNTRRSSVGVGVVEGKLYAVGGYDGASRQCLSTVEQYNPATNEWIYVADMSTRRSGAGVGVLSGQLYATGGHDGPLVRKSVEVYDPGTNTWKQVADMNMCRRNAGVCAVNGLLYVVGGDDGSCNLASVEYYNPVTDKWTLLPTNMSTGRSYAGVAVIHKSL
Briefly: Fluorescence polarisation assay for the binding of WNK3 variants. Conditions: 25°C; for Kd: GST-KLHL3 a.a. 298–587, 50 mM Tris–HCl pH 7.5, 150 mM NaCl, 2 mM DTT, one site specific binding with Hill slope, three technical replicates per point. The procedure:
Figure 2. Analysis of the interaction between KLHL3 and WNK3 variants by fluorescence polarisation. Purified GST-KLHL3 a.a. 298–587 was diluted appropriately and mixed at a 1 : 1 volume ratio with 20 nM Lumino-Green-labelled WNK3 peptides to the concentration stated in the Figure, with the peptide concentration consistent at 10 nM. Fluorescence polarisation measurements were recorded and corrected to the fluorescent probe alone. Each data point represents three technical replicates. One site-specific binding with hill slope was assumed and the disassociation constant was obtained. Binding curves, assuming one-site-specific binding, were then generated with Prism6 using milli-polarization (mP) units. TEXT PRINTED IN THE PICTURE: WNK3 [a.a.537-547] […] E541: KD > 50 μM | WNK3 [a.a.537-547] pT541: KD > 50 μM
For fluorescence polarisation measurements of WNK3 variants, the Kelch domain of human KLHL3 (a.a. […]) was cloned into the bacterial expression vector pGEX6P-1 (MRC-PPU plasmid DU44387) and expressed as a GST fusion protein as previously described. Briefly, E. coli BL21 cells were transformed with plasmid DNA and grown at 37°C in LB broth containing 100 µg/ml ampicillin until OD600 reached 0.6. Cells were then cultured at 16°C for a further 16 h in the presence of 50 µM IPTG for protein induction. Harvested cells were lysed by sonication and the lysate clarified by centrifugation. GST fusion protein was affinity purified using 0.5 ml glutathione–sepharose beads and eluted in buffer (50 mM Tris–HCl pH 7.5, 150 mM NaCl, 2 mM DTT) containing 20 mM glutathione.
Fluorescence polarisation measurements were performed at 25°C using KLHL3 Kelch domain (GST-KLHL3, a.a. 298–587, MRC-PPU plasmid DU44387) buffered in 50 mM Tris–HCl pH 7.5, 150 mM NaCl, 2 mM DTT. All peptides (ECEETEVDQHV, WNK3 a.a. 537–547), (ECEET(P)EVDQHV, WNK3 a.a. 537–547, Thr541 is phosphorylated), and (ECEEEEVDQHV, WNK3 a.a. 537–547, Thr541 is mutated to Glu) were conjugated to the Lumio green fluorophore via an N-terminal linker (CCPGCCGGGG) and dialysed into assay buffer before use. Samples were prepared with 10 nM Lumio-green labelled peptide and the indicated concentration of protein in a final volume of 30 µl. Fluorescence polarisation measurements were recorded using a BMG PheraStar plate reader, with an excitation wavelength of 485 nm and an emission wavelength of 538 nm, and measurements were corrected to the fluorescent probe alone. Data analysis and graphing were performed in GraphPad Prism6. One Site Specific binding with Hill Slope was assumed (model Y = Bmax × X^h/KD^h + X^h) and the disassociation constant, and associated standard error was obtained.
(In general: Polarisation of emitted light reports the rotation of a fluorescent probe.)

Test [3] addresses Lumio green-labelled WNK3 degron peptide (…, WNK3 a.a. 537–547) (human). Briefly: fluorescence polarisation; 10 nM Lumio green-labelled WNK3 peptide titrated with GST-KLHL3 Kelch domain; 25°C; 50 mM Tris–HCl pH 7.5, 150 mM NaCl, 2 mM DTT; one site specific binding with Hill slope.
For test [4], the target named is Lumio green-labelled phospho-WNK3 peptide (ECEET(P)EVDQHV, WNK3 a.a. 537–547, Thr541 phosphorylated) (human). The test is described as above.
In test [5] the target is T2, KLHL3 Kelch domain (a.a. 298–587) (human, UniProt Q9UH77-1 298-587).
T2 chain: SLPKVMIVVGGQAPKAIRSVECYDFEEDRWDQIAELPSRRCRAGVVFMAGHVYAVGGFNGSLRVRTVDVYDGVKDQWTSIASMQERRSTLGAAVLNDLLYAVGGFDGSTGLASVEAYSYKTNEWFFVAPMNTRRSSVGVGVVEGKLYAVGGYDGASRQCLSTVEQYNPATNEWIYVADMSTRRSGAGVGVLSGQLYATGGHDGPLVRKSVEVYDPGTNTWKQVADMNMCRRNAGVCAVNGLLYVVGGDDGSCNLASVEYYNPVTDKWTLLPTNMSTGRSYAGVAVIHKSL
Briefly: FP; 37 mM Cl-.

For test [6], the target named is T2, KLHL3 Kelch domain (a.a. 298–587). Kind of test: FP; 9.5 mM Cl-.
Test [7] has the same target. Briefly: FP; 18 mM Cl-.
Test [8] has the same target. Kind of test: FP; 0 mM Cl-.
Test [9] has the same target. Briefly: FP; 150 mM F-.
For test [10] the target is unchanged. Kind of test: FP; 2.4 mM Cl-.
Test [11] shares this target. Kind of test: FP; 75 mM Cl-.
For test [12] the target is unchanged. Briefly: FP; 4.7 mM Cl-.
For test [13] the target is unchanged. Kind of test: FP; 150 mM Cl-.
The target in test [14] is T3, KLHL3 Kelch domain (a.a. 298–587) (human, UniProt Q9UH77-1 298-587).
T3 construct: Kelch-like protein 3 (KLHL3), human, Kelch domain, a.a; 298–587; Vector pNIC28-Bsa4; the hexahistidine tag was cleaved with TEV protease; It is not clear whether Addgene #110251 names the vector or the construct; also called KLHL3 (a.a. 298–587); source: E. coli BL21(DE3)-pRARE, purified (nickel-sepharose, SEC, TEV cleavage); not shown: His6, N-terminal, cleaved
T3 sequence (looked up): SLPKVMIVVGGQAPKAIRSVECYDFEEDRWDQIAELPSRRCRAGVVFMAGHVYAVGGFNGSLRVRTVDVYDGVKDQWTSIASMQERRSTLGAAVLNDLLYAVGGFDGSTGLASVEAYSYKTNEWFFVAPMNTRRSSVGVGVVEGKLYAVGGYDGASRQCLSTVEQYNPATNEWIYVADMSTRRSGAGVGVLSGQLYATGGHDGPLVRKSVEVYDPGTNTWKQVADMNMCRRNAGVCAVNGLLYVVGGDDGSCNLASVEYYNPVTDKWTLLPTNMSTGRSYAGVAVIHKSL
Briefly: fluorescence polarisation; 10 nM Rhodamine-110 labelled peptide with KLHL3 (a.a. 298–587) from 0 to 3200 or 6400 nM; 25°C; test of the effect of chloride concentration; one site total fit. Conditions: both partners purified.

The target in test [15] is T4, GST-KLHL3 Kelch domain (a.a. 298–587) (human, UniProt Q9UH77 298-587).
T4 chain: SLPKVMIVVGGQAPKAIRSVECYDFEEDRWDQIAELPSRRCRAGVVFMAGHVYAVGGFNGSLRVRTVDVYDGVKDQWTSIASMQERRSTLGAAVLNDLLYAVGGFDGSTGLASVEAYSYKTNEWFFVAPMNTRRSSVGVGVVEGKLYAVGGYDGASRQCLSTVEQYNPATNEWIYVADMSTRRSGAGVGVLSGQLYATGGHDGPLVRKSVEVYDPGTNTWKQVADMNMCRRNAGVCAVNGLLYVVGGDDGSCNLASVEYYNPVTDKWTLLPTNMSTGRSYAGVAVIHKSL
Briefly: FP.

Where [16] appears, read: 10 nM Lumio-green labelled peptide (N-terminal linker CCPGCCGGGG), 30 µl, ex 485/em 538 nm, repeated at least twice.

Take “T541A: WNK3-HA mutant T541A transfected in HEK293 cells”: the “WNK3 levels / KLHL3-mediated degradation (in words)” value in test [1] is given as “reduced KLHL3-mediated degradation of WNK3”.
With ECEETEVDQHV [WNK3 [a.a.537-547] WT], the affinity in test [2] (setting [16]), expressed as Kd, was 670 nM.
For “WNK3: wild type WNK3-HA transfected in HEK293 cells”, the “WNK3 levels / KLHL3-mediated degradation (in words)” value in test [1] is “significantly lower than in the absence of KLHL3, even at the lowest amounts of KLHL3 DNA used for transfection”.
For “WNK3 T541E: WNK3-HA mutant T541E transfected in HEK293 cells”, in [1], the “WNK3 levels / KLHL3-mediated degradation (in words)” value is reported as “noticeably resistant to degradation”.
`CC(C)[C@H](NC(=O)[C@H](Cc1c[nH]cn1)NC(=O)[C@H](CCC(N)=O)NC(=O)[C@H](CC(=O)O)NC(=O)[C@@H](NC(=O)[C@H](CCC(=O)O)NC(=O)[C@@H](NC(=O)[C@H](CCC(=O)O)NC(=O)[C@H](CCC(=O)O)NC(=O)[C@H](CS)NC(=O)[C@@H](N)CCC(=O)O)[C@@H](C)OP(=O)(O)O)C(C)C)C(=O)O` [WNK3 [a.a.537-547] pT541] (H-ECEE[pT]EVDQHV-OH; N-terminus and C-terminus assumed) had a dissociation constant Kd in [2] (setting [16]) of more than 50000 nM. In addition, in test [2] (fluorescence polarisation, GST-KLHL3 a.a. 298–587, 10 nM Lumio-green labelled peptide, pH 7.5), the “KLHL3 interaction (in words)” value is on record as “too severely destabilised to measure a dissociation constant”.
Regarding “GST-KLHL3 Kelch domain (a.a. 298–587) (from UniProt Q9UH77 298-587) (domain or fragment)”, the dissociation constant (Kd) is 670 nM in [3] and more than 50000 nM in [4].
As for ECEEEEVDQHV [WNK3 [a.a.537-547] E541], in test [2] (printed in Figure 2 picture, 10 nM Lumio-green labelled peptide), the Kd is more than 50000 nM.

B1: Rhodamine-110 labelled WNK4 degron peptide (EPEEPEADQHQ) (peptide)
peptide: {Rhodamine‑110}-EPEEPEADQHQ
notes: WNK4 acidic degron motif, residues 557–567; also called 11-residue degron from WNK4; source: synthetic peptide (Fmoc solid phase, purified by HPLC)
In the case of B1, the Kd in test [5] was 600 nM; in test [6] it was 600 nM; in test [7], 600 nM; in [8] it was 700 nM; in test [9], 300 nM; in test [10] it was 600 nM. Besides, the Kd in test [11] is 600 nM; in [12] it was 600 nM; in test [13], 700 nM. Moreover, the binding result in test [14] is “binds”.

B2: Lumio green-labelled WNK3 T541E peptide (ECEEEEVDQHV, WNK3 a.a. 537–547, Thr541 mutated to Glu) (peptide)
peptide: {Lumio green}-CCPGCCGGGGECEEEEVDQHV
modifications: cysteine pairing not given here
For B2, the equilibrium dissociation constant (Kd) in test [15] was more than 50000 nM.

B3: Rhodamine-110 labelled WNK3 degron peptide (ECEETEVDQHV) (peptide)
peptide: {Rhodamine‑110}-ECEETEVDQHV
For the molecule B3, the Kd worked out at 1500 nM in test [5]; 1300 nM in test [6]; 1400 nM in [7]; 1700 nM in [8]; 1100 nM in [9]; 1200 nM in [10]. The equilibrium dissociation constant (Kd) in [11] is 1300 nM; in test [12], 1700 nM; in test [13] it was 1300 nM.

What is called Kd is the equilibrium constant for the complex coming apart. A lower Kd goes with tighter binding.
